Measured values: patent publication US20090208960A1, “METHODS FOR IDENTIFYNG CELLULAR MODULATORS OF DISAGGREGATION ACTIVITY OR AGGREGATION ACTIVITY IN AN ANIMAL” (priority 2006, published 2009)

What was measured:
[1] = test system: proteasome activity of worm PDS; assay: Proteasome activity of worm PDS with substrate Z-GGL-AMC; type: biochemical, Caenorhabditis elegans; details: 10 μM; wild-type worm (N2) PDS 0.5 μg/μl
Method: The synthetic proteasome substrate Z-GGL-AMC was used according to the manufacturer's (Calbiochem) instructions to follow proteasome activity of wild-type worms (strain N2) PDS (0.5 μg/μl).

Method for PC12 cells: Viability of rat adrenal pheochromocytoma (PC12) cells were discerned by the MTT assay (Bucciantini et al., Nature 416: 507, 2002), and normalized to cell survival when incubated in the absence of Aβ1-40.
Using the disaggregation assay and conditions as in B, and 72 h incubation, Aβ1-40 disaggregation samples (500 nM) were added to PC12 cell culture medium for 3 days. Cell viability was assayed by MTT metabolic activity.

| Compound | toxicity on PC12 cells (PC12 cells) | proteasome activity of worm PDS [1] |
| --- | --- | --- |
| Monomeric Aβ1-40 peptide: Aβ1-40 peptide purchased from Synpep | did not exhibit toxicity |  |
| CC[C@H](C)[C@H](NC(=O)[C@H]([C@@H](C)CC)N(C)C(C)=O)C(=O)N[C@H](C(=O)N[C@@H](CC(C)C)C(=O)[C@@]1(C)CO1)[C@@H](C)O [Epoxomicin] |  | effectively inhibits proteasome activity |
